We go through two molecules from patent US20260209387A1, “SINGLE-DOMAIN ANTIBODY FOR INHIBITION OF NEUTROPHIL ELASTASE ACTIVITY” (UNIVERSITE DE LIEGE, priority 2023, published 2026).

The target in assay [1] is T1, mouse neutrophil elastase (mouse, UniProt Q3UP87 29-265, limits assumed).
T1 construct: also called mNE; murine elastase
T1 sequence (looked up): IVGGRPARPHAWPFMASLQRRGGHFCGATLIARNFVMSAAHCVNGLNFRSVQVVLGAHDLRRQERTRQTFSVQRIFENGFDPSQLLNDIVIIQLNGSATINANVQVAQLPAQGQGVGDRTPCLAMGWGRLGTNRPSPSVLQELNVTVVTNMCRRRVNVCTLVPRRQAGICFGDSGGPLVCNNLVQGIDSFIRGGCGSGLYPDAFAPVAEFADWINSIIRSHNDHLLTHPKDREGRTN
Nature of the assay: enzymatic assay, substrate MeOSuc-Ala-Ala-Pro-Val-AMC, Morrison equation for tight binders, N=6.
Procedure: The substrate used were Succinyl-Ala-Ala-Ala-paraNitroAnilide (1 mM in 0.1 M Tris pH 7.5 with NaCl 0.5 M and NaN3 0.01%, % w/v from Sigma-Aldrich) for pPE, MeOSuc-Ala-Ala-Pro-Val-AMC (100 μM in Tris 50 mM, NaCl 1 M, 0.05% (% w/v) Brij-35, pH 7.5) for mNE, N-Succinyl-Ala-Ala-Pro-Phe p-nitroanilide (0.45 mM in 100 mM HEPES pH 7.5, from Sigma Aldrich) for hCG and Boc-Ala-Ala-Nva-SBzl (0.22 mM in 100 mM MOPS pH 5.0 0.5 M NaCl, 100 μM DTNB, DMSO 10%, from EPC) for PR3. mNE (rmELA2 from R&D systems, United Kingdom) was first activated according to the supplier information. In brief, mNE was incubated with recombinant mouse active cathepsin C/DPPIy (rmCathepsin C from R&D systems) in MES 50 mM, NaCl 50 mM, pH 5.5 for 2 h at 37° C. […] The hydrolysis of the substrate and the determination of the residual activity were carried out as explained above for the inhibition of hNE.

In assay [2] the target is T2, human neutrophil elastase (human, UniProt P08246 30-247, glycans (NAG-NAG-FUC) at N109 and N204, chymotrypsinogen numbering, seen in the crystal).
T2 construct: Purified hNE bought from Elastin Products Company; In the crystal, density is defined for I1 to Q218; also called hNE; HNE
T2 sequence: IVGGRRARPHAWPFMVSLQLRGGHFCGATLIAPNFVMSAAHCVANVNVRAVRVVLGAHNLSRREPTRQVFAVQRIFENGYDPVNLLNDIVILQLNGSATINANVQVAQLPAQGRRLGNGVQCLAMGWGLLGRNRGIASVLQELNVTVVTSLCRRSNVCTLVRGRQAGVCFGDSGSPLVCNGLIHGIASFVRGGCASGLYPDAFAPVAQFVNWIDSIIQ
In words: enzymatic assay, substrate N-Succinyl-Ala-Ala-Ala-pNA, Morrison equation for tight binders, N=3.
Procedure: Inhibition of the hydrolysis of a chromogenic substrate. […] Briefly, hNE (Elastin products company, EPC, United States) was resuspended at 1 mg·mL⁻¹ in 50 mM sodium acetate buffer pH 5 containing 100 mM NaCl and stored at 4° C. The substrate Succinyl-Ala-Ala-Ala-paraNitroAnilide was dissolved at 1 mM in 0.1 M Tris pH 7.5 with NaCl 0.5 M and NaN3 0.01% (% w/v) and stored at 4° C. 230 μl of substrate (1 mM) were mixed with 10 μl of Bovine Serum Albumin 9 μM (BSA, Sigma-Aldrich, Germany) and incubated 20 min at 25° C. in a clear flat bottom 96-well plate (Greiner Bio-One, Belgium). […] Immediately after, the hNE was added to the mix at a final concentration of 50 nM. […] The initial velocity determined in the presence of the ISVD at different Nb: hNE ratios was compared to that measured in the absence of the ISVD, to determine the residual activity. The delay between the addition of hNE and the first measurement was about 100 seconds. […] In some experiments, the ISVD was preincubated for 15 minutes with the hNE and the complex was added to the substrate.
The Kᵢ was calculated averaging three Kᵢ of three independent curves, each curve representing experiment carried out with a different lot of production of the Nb.

Assay [3] addresses T2, human neutrophil elastase. Nature of the assay: cell-based or functional assay.
For assay [4], the target named is T1, mouse neutrophil elastase. In words: cell-based or functional assay.
In assay [5] the target is T2, human neutrophil elastase. In words: cell-based or functional assay. This is another data set of the same source.
Assay [6] deals with T3, human proteinase 3 (human, UniProt P24158 28-248).
T3 sequence (looked up): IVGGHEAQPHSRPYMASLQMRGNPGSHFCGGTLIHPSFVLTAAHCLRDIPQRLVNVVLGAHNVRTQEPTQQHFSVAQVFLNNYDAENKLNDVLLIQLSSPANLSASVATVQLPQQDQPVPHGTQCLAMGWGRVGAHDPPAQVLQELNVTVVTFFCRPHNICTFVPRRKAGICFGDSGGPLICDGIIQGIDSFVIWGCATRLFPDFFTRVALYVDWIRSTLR
Nature of the assay: cell-based or functional assay.

Assay [7] addresses T4, porcine pancreatic elastase (pig, UniProt P00772 27-266).
T4 construct: also called pPE; PPE
Nature of the assay: BLI, biotinylated NbE201 on streptavidin sensors, protease in solution. As for the experimental part: (§1) The biosensors were then immersed in a 50 nM solution of a serine protease. The proteases tested were human cathepsin G (hCG), human proteinase 3 (hPR3), mouse pancreatic elastase (mPE), mouse neutrophil elastase (mNE) and porcine pancreatic elastase (pPE). hNE was used a positive control. The association and dissociation were measured for 70 s and 320 s respectively, in kinetic buffer (KB, Sartorius). The experiments were carried out at 30° C. in 384-wells black-bottom microplates in polypropylene (Greiner Bio-One, Belgium) and with orbital agitation (1000 rpm).
For orientation: Biolayer interferometry detects binding as a change in optical thickness at a sensor tip.

For assay [8], the target named is T5, human cathepsin G (human, UniProt P08311 21-244).
T5 construct: also called hCG; CG
T5 sequence (looked up): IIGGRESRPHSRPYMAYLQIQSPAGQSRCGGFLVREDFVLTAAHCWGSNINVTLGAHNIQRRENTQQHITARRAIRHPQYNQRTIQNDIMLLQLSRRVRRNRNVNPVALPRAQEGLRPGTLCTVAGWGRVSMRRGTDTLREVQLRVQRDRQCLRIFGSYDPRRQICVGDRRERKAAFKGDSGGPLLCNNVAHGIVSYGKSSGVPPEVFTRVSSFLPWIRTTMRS
The description is as above. As to the method: as §1

For assay [9], the target named is T3, human proteinase 3. Described as above. As to the method: as §1
Assay [10] concerns the target T2, human neutrophil elastase. Nature of the assay: BLI (Octet HTX), biotinylated NbE201 on streptavidin sensor, hNE as analyte, global 1:1 fit, N=2. As for the experimental part: FIG. 6. […] On the x-axis, the time in seconds. On the y-axis, the interference signal in nm. A vertical dashed line divides the association step from the dissociation step. […] Each curve (in black) represents measured data (□□) referring to a single concentration of hNE used: 25 nM, 6.25 nM, 3.125 nM, 1.563 nM and 0.753 nM (from top to bottom). In grey, is represented the fitting of the data from which the KD value and kinetic parameters were derived. Data were fitted accordingly to a 1:1 ligand model by using the Data Analysis Octet Software Version 10.0 (Satorius). Independent replicates of the experiment were done (N=2) and the mean (±st. dev.) of the kinetics parameters measured and indicated in Table 2.
(§2) Then, the biosensors were immersed in a solution of hNE at different concentrations ([…]-0.753 nM). Association and dissociation kinetics were measured for 180 s and 300 s respectively, in 10×KB buffer. All the experiments were carried out at 30° C. in 96-wells or 384-wells black-bottom microplates in polypropylene (Greiner Bio-One, Belgium) and with orbital agitation (1500 rpm). The sensorgrams obtained were fitted globally to a 1:1 model to derive the rate constants for association (kₒₙ) and dissociation (koff) and the equilibrium dissociation constant (KD=koff/kₒₙ). […] were carried out. The error on KD was calculated using the following equation: […]

The target of assay [11] is T1, mouse neutrophil elastase. Nature of the assay: BLI (Octet HTX), NbE201_Cter Biot on streptavidin sensor, mNE as analyte, 1:1 fit, N=1. As to the method: FIG. 9. […] On the x-axis, the time in seconds. On the y-axis, the interference signal in nm. The dashed line separates the association step from the dissociation step. In black, the experimental signal. In grey, the fitting using a 1:1 model. The mNE concentrations tested are 100-50-25-12.5-6.25-3.125 nM, from top to bottom. Association and dissociation kinetics were measured for 300 s and 600 s respectively. The obtained sensorgrams were fitted to a 1:1 model by using the Data Analysis Octet Software Version 10.0 (Sartorius) to derive the rate constants for association (kₒₙ) and dissociation (koff) and the equilibrium dissociation constant (KD=koff/kₒₙ).
as §2

Assay [12] has as its target T2, human neutrophil elastase. Nature of the assay: BLI, comparison of the values in Table 2.

T4 sequence (P00772 27-266): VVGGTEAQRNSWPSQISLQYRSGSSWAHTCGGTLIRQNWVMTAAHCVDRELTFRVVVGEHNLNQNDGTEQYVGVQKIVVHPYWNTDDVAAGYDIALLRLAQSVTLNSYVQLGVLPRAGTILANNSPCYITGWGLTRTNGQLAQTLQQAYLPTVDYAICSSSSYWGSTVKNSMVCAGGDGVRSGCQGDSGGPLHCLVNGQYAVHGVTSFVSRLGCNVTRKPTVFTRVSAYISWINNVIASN

B1: NbE201 (VHH)
VHH: QVQLQESGGGLVQAGGSLRLSCVVPGRTISLYRMGWFRQAPGKEREFVAGINWSGDMTDYVDSVKGRFTISRDNAKNTVYLEMNSLKPEDTAIYYCTADPKLLPLADSSYGYWGQGTQVTVSS
notes: Llama VHH made in the periplasm of E. coli WK6 (pHEN6 vector) and purified by IMAC; This form was used in the enzymatic assays and for crystallisation; also called NbE201 wt; NbE201-WT
As usually defined, the Ki is the dissociation constant of the complex between target and ligand, obtained from inhibition or displacement. For B1, the inhibition constant Ki in [1] amounted to 38.8 nM. This molecule came in with an inhibition constant Ki in assay [2] of 4.1 nM. Further, in assay [3], the “IC50, inhibition of hydrolysis of N-Succinyl-Ala-Ala-Ala-paraNitroAnilide by hNE (50 nM)” value was determined as 38.3 nM. The “IC50, inhibition of hydrolysis of MeOSuc-Ala-Ala-Pro-Val-AMC by mNE (14.7 nM)” value in [4] worked out at 49.4 nM. In [5], the “IC50, inhibition of elastin hydrolysis by hNE (132 nM)” value worked out at 488 nM; the “fold inhibitory activity relative to mNE” value is roughly 10 fold; the “molar ratio inhibitor:hNE for total elastase inhibition in vitro” value was 3 NbE201:hNE molar ratio. Further, in assay [6], the “inhibition of protease activity at NbE201:enzyme ratio of 60” value is 20%.

B2: biotinylated NbE201 (VHH)
VHH: QVQLQESGGGLVQAGGSLRLSCVVPGRTISLYRMGWFRQAPGKEREFVAGINWSGDMTDYVDSVKGRFTISRDNAKNTVYLEMNSLKPEDTAIYYCTADPKLLPLADSSYGYWGQGTQVTVSS
modifications: C-terminal Cys biotinylated with EZ-Link Maleimide-PEG2-Biotin
notes: Form immobilised on streptavidin sensors in all BLI experiments; It was produced in the pHEN25 vector and biotinylated site-specifically on its C-terminal Cys; also called NbE201_Cter Biot; biotinylated ISVD NbE201
A word on the Kd: it is the concentration at which binding is half-saturated. Low readings indicate higher affinity, high ones lower affinity. Broadly, the koff is the first-order rate constant of dissociation. A high value points to fast dissociation. In general, kon refers to the rate constant with which the complex forms. High values mean faster complex formation, low ones slower complex formation. Take B2: the binding result in [7], in assay [8] and in assay [9] was “no binding (tested: 50 nM)” throughout. For the same molecule, the Kd in assay [10] stood at 1.3 nM; in [11], 49 nM. The results for the koff in [10] and in assay [11] were 0.0032 s⁻¹ and 0.019 s⁻¹, respectively. For the same molecule, the values for the association rate constant (kon) in assay [10] and in assay [11] were 2.6e+06 M⁻¹ s⁻¹ and 390000 M⁻¹ s⁻¹, respectively. Also, the “fold affinity relative to mNE” value in assay [12] is roughly 10 fold.
